Laboratory results from patent US20200199244A1 (published 2020).
Changes are numbered by the printed parent chain. Values joined by “and” are separate entries in the source; they are usually repeats but may differ in a detail not shown here. Identical values can stand only once.

What was measured:
[1] = biological target: T1, human CD40 (BMS, CY24FEB06-01) (human, UniProt P25942 21-193); test: bead RBA, competition with IZ-CD40L
T1 construct: Soluble reagent of the bead and ELISA RBA; It is detected with an anti-human IgG (Fc) mAb, so it may be a CD40-Ig fusion

[2] = biological target: T2, human CD40 (W109L, L121P) Fc fusion (human, UniProt P25942 21-193); test: SPR ProteOn XPR36;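 note: surface plasmon resonance with CD40-Fc fusions captured through their Fc on an anti-human IgG chip, sensorgrams reference-subtracted against surfaces lacking CD40-Fc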
T2 construct: As m1 with W109L and L121P; also called hCD40-M4; not shown: human IgG1 Fc

[3] = biological target: T3, human CD40 (H76R, W109L, L121P) Fc fusion (human); test: SPR ProteOn XPR36;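 note: surface plasmon resonance with CD40-Fc fusions captured through their Fc on an anti-human IgG chip, sensorgrams reference-subtracted against surfaces lacking CD40-Fc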
T3 construct: As m1 with H76R, W109L and L121P; also called hCD40-M5; not shown: human IgG1 Fc
T3 chain: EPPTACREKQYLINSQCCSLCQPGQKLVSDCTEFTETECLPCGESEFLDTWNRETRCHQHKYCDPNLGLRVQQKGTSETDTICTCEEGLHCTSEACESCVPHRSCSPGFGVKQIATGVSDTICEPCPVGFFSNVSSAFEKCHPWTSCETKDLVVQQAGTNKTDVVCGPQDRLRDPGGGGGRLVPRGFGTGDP

[4] = biological target: T4, wild type cynomolgus monkey CD40 Fc fusion (cynomolgus monkey; human); test: SPR ProteOn XPR36;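 note: surface plasmon resonance with CD40-Fc fusions captured through their Fc on an anti-human IgG chip, sensorgrams reference-subtracted against surfaces lacking CD40-Fc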
T4 construct: also called wt-cyno-CD40; wt-cCD40; not shown: human IgG1 Fc
T4 chain: T3 chain with A95S, S106L, H142R, L172Q

human CD40 = human CD40 (human, UniProt P25942 21-277); test: cell-based or functional assay
human serum albumin = biological target: T5, human serum albumin (human, UniProt P02768 25-609); test: SPR (BIAcore 3000), HSA amine-coupled on CM5 chip, ILF as analyte, 1:1 Langmuir fit, 25 C
T5 construct: Amine-coupled to a CM5 BIAcore chip; also called HSA
Source text: (§1) A BIAcore™ 3000 instrument (GE Healthcare) was used to analyze the binding kinetics of anti-CD40-AlbudAb ILFs to human and cynomolgus serum albumin. Approximately 400 response units (RU) of human serum albumin (HSA) or cynomolgus serum albumin (CSA) were immobilized on a flow-cell of a CM5 BIAcore™ chip using an Amine Coupling Kit (GE Healthcare). A second flow cell without any ligand immobilized served as a reference flow-cell for inline referencing. An appropriate doubling dilution series of each dAb to be analyzed was prepared in HBS-EP buffer (0.01 M HEPES pH 7.4 with 0.15 M NaCl, 3 mM EDTA and 0.005% v/v Surfactant P20, GE Healthcare). Two hundred microlitres of each ILF were injected in duplicate using the instrument's KINJECT function. The injections were made across the serum albumin-immobilized and reference flow-cells in series, with inline subtraction of the signal from the reference cell. The experiment was performed at 25° C. and a flow rate of 40 μl/min of HBS-EP. After each injection had been completed, the dAb was allowed to dissociate from the ligand in buffer for 120 s before regeneration with a 10 μl injection of 10 mM glycine pH 2.0. A reference injection of HBS-EP buffer blank (containing no analyte) was also injected under the same conditions to serve as a second reference for subtraction from each analyte trace. BIAevaluation 4.1 software (GE Healthcare) was used to subtract both the reference flow-cell trace and the buffer blank trace from each analyte trace.
(§2) The same software was used to perform a simultaneous, global fit of a 1:1 (Langmuir) kinetic model to the association and dissociation phases of the analyte dilution series traces. This model yielded association and dissociation rate constants (kₐ and kd, respectively) and the equilibrium dissociation constant (KD) of the interaction.

cynomolgus serum albumin = biological target: T6, cynomolgus serum albumin (cynomolgus, UniProt A2V9Z4 25-608); test: SPR (BIAcore 3000), CSA amine-coupled on CM5 chip, ILF as analyte, 1:1 Langmuir fit, 25 C
T6 construct: Amine-coupled to a CM5 BIAcore chip; also called CSA; Cyno Serum Albumin
Source text: as §1, §2

[5] = biological target: T7, wild type human CD40 Fc fusion (human, UniProt P25942 21-193); test: SPR, ProteOn XPR36; CD40-Fc captured, dAb analyte; 1:1 fit; repeat
T7 construct: also called wt-hCD40; not shown: human IgG1 Fc

[6] = biological target: T7, wild type human CD40 Fc fusion; test: SPR, ProteOn XPR36; CD40-Fc captured, dAb analyte; 1:1 fit;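 note: CD40-Fc captured on anti-human IgG(Fc) surface of a GLC chip, buffer pH 7.1, sensorgrams double-referenced against surfaces without CD40-Fc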
[7] = biological target: T8, human CD40 (W109L) Fc fusion (human, UniProt P25942 21-193); test: as above
T8 construct: Same construct as wt-hCD40 with W109L; also called hCD40-M2; hCD40 M2 (W109L); not shown: human IgG1 Fc

[8] = biological target: T9, human CD40 (H76R, W109L, L121P) Fc fusion (human); test: as above
T9 construct: Same construct as wt-hCD40 with H76R, W109L and L121P; also called hCD40-M5; hCD40-M5 (H76R, W109L, L121P); not shown: human IgG1 Fc
T9 chain: T3 chain

[9] = biological target: T10, wild type cynomolgus monkey CD40 Fc fusion (cynomolgus monkey (Macaca …)); test: as above
T10 construct: also called wt-cCD40; wt-cyno-CD40; not shown: human IgG1 Fc
T10 chain: T3 chain with A95S, S106L, H142R, L172Q

[10] = biological target: T11, human CD40 (W109L, L121P) Fc fusion (human, UniProt P25942 21-193); test: as above
T11 construct: Same construct as wt-hCD40 with W109L and L121P; also called hCD40-M4; hCD40 M4 (W109L, L121P); not shown: human IgG1 Fc

[11] = biological target: T12, human CD40 (W109R) Fc fusion (Chimpanzee CD40) (human, UniProt P25942 21-193); test: as above
T12 construct: Same construct as wt-hCD40 with W109R (the residue of chimpanzee CD40); also called hCD40-M3; hCD40 M3 (W109R); not shown: human IgG1 Fc

[12] = biological target: T13, human CD40 (H76R) Fc fusion (human, UniProt P25942 21-193); test: as above
T13 construct: also called hCD40-M1; hCD40 M1 (H76R); not shown: human IgG1 Fc

T5 sequence (P02768 25-609 limits assumed): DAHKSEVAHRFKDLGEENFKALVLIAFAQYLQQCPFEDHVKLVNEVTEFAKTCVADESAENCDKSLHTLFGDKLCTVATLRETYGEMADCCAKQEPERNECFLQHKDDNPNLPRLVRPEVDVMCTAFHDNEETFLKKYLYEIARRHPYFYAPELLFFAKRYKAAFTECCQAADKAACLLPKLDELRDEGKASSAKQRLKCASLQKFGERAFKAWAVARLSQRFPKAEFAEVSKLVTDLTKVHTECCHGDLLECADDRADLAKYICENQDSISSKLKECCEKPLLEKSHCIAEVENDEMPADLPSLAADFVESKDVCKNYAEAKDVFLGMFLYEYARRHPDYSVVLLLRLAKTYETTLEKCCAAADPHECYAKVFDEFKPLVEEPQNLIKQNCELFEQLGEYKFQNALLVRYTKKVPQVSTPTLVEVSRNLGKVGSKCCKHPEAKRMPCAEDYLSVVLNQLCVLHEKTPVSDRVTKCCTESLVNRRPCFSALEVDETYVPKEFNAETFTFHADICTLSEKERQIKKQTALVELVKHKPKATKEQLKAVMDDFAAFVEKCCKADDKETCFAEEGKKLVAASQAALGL
T6 sequence (A2V9Z4 25-608 limits assumed): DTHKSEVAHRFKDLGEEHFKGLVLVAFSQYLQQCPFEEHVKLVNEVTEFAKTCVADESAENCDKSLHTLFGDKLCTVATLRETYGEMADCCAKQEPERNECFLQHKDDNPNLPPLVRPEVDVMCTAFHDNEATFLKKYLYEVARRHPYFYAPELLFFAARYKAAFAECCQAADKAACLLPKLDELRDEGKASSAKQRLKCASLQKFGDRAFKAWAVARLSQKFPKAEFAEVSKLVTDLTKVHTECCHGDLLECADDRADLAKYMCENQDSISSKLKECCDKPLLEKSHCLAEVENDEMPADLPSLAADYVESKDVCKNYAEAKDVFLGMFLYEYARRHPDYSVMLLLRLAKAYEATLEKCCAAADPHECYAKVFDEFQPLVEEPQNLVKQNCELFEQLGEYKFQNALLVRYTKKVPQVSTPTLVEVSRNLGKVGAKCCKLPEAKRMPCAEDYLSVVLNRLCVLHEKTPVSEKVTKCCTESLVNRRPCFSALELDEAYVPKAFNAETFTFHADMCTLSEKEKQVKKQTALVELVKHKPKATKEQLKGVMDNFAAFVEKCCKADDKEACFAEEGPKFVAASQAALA

B1: BMS3h-56 (other)
VH: EVQLLESGGGLVQPGGSLRLSCAASGFTFRDYEMWWVRQAPGKGLERVSAINPQGTRTYYADSVKGRFTISRDNSKNTLYLQMNSLRAEDTAVYYCAKLPFIFDYWGQGTLVTVSS
notes: dAb, single VH
With B1 the EC50 [1] was 1000 nM and 500 nM.

B2: BMS3h-56-217 (other)
VH: B1 VH with Q54W, T56S, R57L, I102T, D104E, Y105D
notes: domain antibody (dAb), single VH domain
B2: no binding (tested: 405 nM) [2]; no binding (tested: 405 nM) [3]; no binding (tested: 405 nM) [4].

B3: BMS3h-56-5 (other)
VH: B1 VH with K65M, I102T, Y105D
notes: as for B2
B3: no binding (tested: 405 nM) [2]; no binding (tested: 405 nM) [3]; no binding (tested: 405 nM) [4].

B4: BMS3h-56-206 (other)
VH: B1 VH with Y95H, F101M, I102F, D104E, Y105D, S116N
notes: as for B2
B4: no binding (tested: 405 nM) [2]; no binding (tested: 405 nM) [3]; no binding (tested: 405 nM) [4].

B5: BMS3h-56-202 (other)
VH: B1 VH with F101T, I102Y, D104S, Y105D, W106R
notes: as for B2
B5: no binding (tested: 405 nM) [2]; no binding (tested: 405 nM) [3]; no binding (tested: 405 nM) [4].

B6: BMS3h-37 (other)
VH: EVQLLESGGGLVQPGGSLRLSCAASGFTFEWYEMQWVRQAPGKGLEWVSAISGDGYRTYYADSVKGRFTISRDNSKNTLYLQMNSLRAEDTAVYYCAKELGYFDYWGQGTLVTVSS
notes: dAb, single VH
B6 was tested, and the EC50 [1] was 100 nM and 200 nM.

B7: BMS3h-56-2 (other)
VH: B1 VH with I102T, Y105D
notes: as for B2
B7: no binding (tested: 405 nM) [2]; no binding (tested: 405 nM) [3]; no binding (tested: 405 nM) [4].

B8: DMS0662 DOM7h-11-90-TVAAPS-BMS3h-56-201 (bispecific antibody)
chain: DIQMTQSPSSLSASVGDRVTITCRASRPIGTMLSWYQQKPGKAPKLLILAFSRLQSGVPSRFSGSGSGTDFTLTISNLQPEDFATYYCAQAGTHPTTFGQGTKVEIKRTVAAPSEVQLLESGGGLVQPGGSLRLSCAASGFTFRDYEMWWVRQAPGKGLERVSAINPQGTRTYYADSVKGRFTISRDNSKNTLYLQMNSLRAEDTAVYYCAKLPFYFQEWGQGTLVTVSS
notes: AlbudAb inline fusion (ILF): an anti-CD40 dAb and an anti-serum-albumin dAb joined by a linker in one polypeptide
B8 was tested, and the “ICAM-1 Cell Assay EC50 (nM), 10% bovine serum” value (human CD40) was 33.5 nM, the “ICAM-1 Cell Assay EC50 (nM), 10% human serum” value (human CD40) was over 1000 nM and the Kd (human serum albumin) was 1.21 nM and 1.23 nM. The koff (human serum albumin) was 0.00133 s⁻¹ and 0.00147 s⁻¹, the kon (human serum albumin) was 1.1e+06 M⁻¹ s⁻¹ and 1.19e+06 M⁻¹ s⁻¹ and the Kd (cynomolgus serum albumin) was 2.5 nM and 2.42 nM. For the same binder, the koff (cynomolgus serum albumin) was 0.00252 s⁻¹ and 0.00266 s⁻¹ and the kon (cynomolgus serum albumin) was 1.01e+06 M⁻¹ s⁻¹ and 1.1e+06 M⁻¹ s⁻¹.

B9: DMS0664 DOM7h-11-69-TVAAPS-BMS3h-56-201 (bispecific antibody)
chain: B8 chain with N77S, T93V
notes: as for B8
B9 was tested, and the “ICAM-1 Cell Assay EC50 (nM), 10% bovine serum” value (human CD40) was 16.5 nM, the “ICAM-1 Cell Assay EC50 (nM), 10% human serum” value (human CD40) was over 1000 nM and the Kd (human serum albumin) was 0.57 nM and 1.59 nM. For the same binder, the koff (human serum albumin) was 0.00142 s⁻¹ and 0.00149 s⁻¹, the kon (human serum albumin) was 2.5e+06 M⁻¹ s⁻¹ and 930000 M⁻¹ s⁻¹ and the Kd (cynomolgus serum albumin) was 1.09 nM and 2.97 nM. The koff (cynomolgus serum albumin) was 0.00273 s⁻¹ and 0.00272 s⁻¹ and the kon (cynomolgus serum albumin) was 2.51e+06 M⁻¹ s⁻¹ and 920000 M⁻¹ s⁻¹.

B10: DMS0663 DOM7h-11-86-TVAAPS-BMS3h-56-201 (bispecific antibody)
chain: B8 chain with N77S, F83V
notes: as for B8
With B10 the “ICAM-1 Cell Assay EC50 (nM), 10% bovine serum” value (human CD40) was 21.4 nM, the “ICAM-1 Cell Assay EC50 (nM), 10% human serum” value (human CD40) was over 1000 nM and the Kd (human serum albumin) was 1.12 nM and 1.21 nM. For the same binder, the koff (human serum albumin) was 0.0014 s⁻¹ and 0.0016 s⁻¹, the kon (human serum albumin) was 1.25e+06 M⁻¹ s⁻¹ and 1.32e+06 M⁻¹ s⁻¹ and the Kd (cynomolgus serum albumin) was 2.38 nM and 2.52 nM. For the same binder, the koff (cynomolgus serum albumin) was 0.00281 s⁻¹ and 0.00296 s⁻¹ and the kon (cynomolgus serum albumin) was 1.18e+06 M⁻¹ s⁻¹.

B11: BMS3h-197 (other)
VH: EVQLLESGGGLVQPGGSLRLSCAASGFTFGSAAMDWVRQAPGKGLEWVSSINDMGSNTYYADSVKGRFTISRDNSKNTLYLQMNSLRAEDTAVYYCAKQGGRFDYWGQGTLVTVSS
notes: dAb, single VH
In the case of B11, the EC50 [1] is reported as 30 nM.

B12: BMS3h-202 (other)
VH: EVQLLESGGGLVQPGGSLRLSCAASGFTFPTAEMVWVRQAPGKGLEWVSSISASGGSTYYADSVKGRFTISRDNSKNTLYLQMNSLRAEDTAVYYCAKEPVSYVATFDYWGQGTLVTVSS
notes: dAb, single VH
For B12, the EC50 [1] was 3700 nM and 3000 nM.

B13: BMS3h-217-16 (other)
VL: DIQMTQSPSSLSASVGDRVTITCRASHFIGTLLSWYQQKPRKAPKLLITYGSLLQSGVPSRFSGSGSGTDFTLTISSLQPEDFATYYCGQGVLWPPTFGQGTKVEIKR
notes: Anti-human CD40 domain antibody (dAb), single V kappa domain
In the case of B13, the Kd [5] is reported as 0.26 nM, the koff [5] is reported as 0.000847 s⁻¹ and the kon [5] is reported as 3.3e+06 M⁻¹ s⁻¹. The Kd [6] was 0.22 nM, the koff [6] was 0.000991 s⁻¹ and the kon [6] was 4.47e+06 M⁻¹ s⁻¹. It also gave a Kd [7] of 0.41 nM, a koff [7] of 0.00167 s⁻¹ and a kon [7] of 4.06e+06 M⁻¹ s⁻¹. The Kd [8] was 0.47 nM, the koff [8] was 0.0017 s⁻¹ and the kon [8] was 3.65e+06 M⁻¹ s⁻¹. It also gave a Kd [9] of 0.43 nM, a koff [9] of 0.00147 s⁻¹ and a kon [9] of 3.44e+06 M⁻¹ s⁻¹. It also gave a Kd [10] of 0.35 nM, a koff [10] of 0.00152 s⁻¹ and a kon [10] of 4.39e+06 M⁻¹ s⁻¹. For the same binder, the Kd [11] was 0.27 nM, the koff [11] was 0.00104 s⁻¹ and the kon [11] was 3.78e+06 M⁻¹ s⁻¹. For the same binder, the Kd [12] was 0.35 nM, the koff [12] was 0.00168 s⁻¹ and the kon [12] was 4.83e+06 M⁻¹ s⁻¹.

B14: BMS3h-38 (other)
VH: B6 VH with W31E, Y32E, Q35I, D54S, Y56G, R57S, L100P, G101F, Y102R
notes: dAb, single VH
In the case of B14, the EC50 [1] is reported as 600 nM and 650 nM.

B15: BMS3h-41 (other)
VH: B6 VH with E30T, W31E, Q35I, A50S, D54N, Y56A, R57N, L100P, G101L, Y102R
notes: dAb, single VH
In the case of B15, the EC50 [1] is reported as 2000 nM and 1600 nM.

B16: BMS3h-131 (other)
VL: DIQMTQSPSSLSASVGDRVTITCRANSSILWALAWYQQKPGKAPKLLIESSSGLQSGVPSRFSGSGSGTDFTLTISSLQPEDFATYYCVQNAGWPGTFGQGTKVEIKR
notes: dAb, single VK
With B16 the EC50 [1] was 500 nM and > 1000 nM.

B17: BMS3h-193 (other)
VL: DIQMTQSPSSLSASVGDRVTITCRASQTIERRLNWYQQKPGKAPKLLIYLASRLQSGVPSRFSGSGSGTDFTLTISSLQPEDFATYYCHQYASPPLTFGQGTKVEIKR
notes: dAb, single VK
For B17, the EC50 [1] was 1000 nM.
